Test results published in patent publication US20150258192A1, “COMPOSITIONS AND METHODS FOR PREVENTING OR TREATING CHRONIC LUNG ALLOGRAFT DYSFUNCTION (CLAD) AND IDIOPATHIC PULMONARY FIBROSIS (IPF)” (priority 2014, published 2015).
No end group written: not given here.

Experiments:
Experiment in all cases: Kinase Profiling Assay
Assay type in all cases: biochemical
Settings in all cases: peptide 100 μM
CaMKIδ(h) = CaMKIδ(h) (Homo sapiens, UniProt Q8IU85)
How it was run: (§1)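 Radiometric filter-binding format: cationic substrate takes up labeled phosphate from ATP unless the inhibitor peptide blocks the kinase. Substrate bound to an anionic filter, scintillation-counted, normalized to 100% activity control. Duplicates; part of a 266-kinase selectivity panel for MK2 peptides.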

DCAMKL2(h) = target: T1, DCAMKL2(h) (Homo sapiens, UniProt Q8N568)
T1 sequence (Q8N568 1-766): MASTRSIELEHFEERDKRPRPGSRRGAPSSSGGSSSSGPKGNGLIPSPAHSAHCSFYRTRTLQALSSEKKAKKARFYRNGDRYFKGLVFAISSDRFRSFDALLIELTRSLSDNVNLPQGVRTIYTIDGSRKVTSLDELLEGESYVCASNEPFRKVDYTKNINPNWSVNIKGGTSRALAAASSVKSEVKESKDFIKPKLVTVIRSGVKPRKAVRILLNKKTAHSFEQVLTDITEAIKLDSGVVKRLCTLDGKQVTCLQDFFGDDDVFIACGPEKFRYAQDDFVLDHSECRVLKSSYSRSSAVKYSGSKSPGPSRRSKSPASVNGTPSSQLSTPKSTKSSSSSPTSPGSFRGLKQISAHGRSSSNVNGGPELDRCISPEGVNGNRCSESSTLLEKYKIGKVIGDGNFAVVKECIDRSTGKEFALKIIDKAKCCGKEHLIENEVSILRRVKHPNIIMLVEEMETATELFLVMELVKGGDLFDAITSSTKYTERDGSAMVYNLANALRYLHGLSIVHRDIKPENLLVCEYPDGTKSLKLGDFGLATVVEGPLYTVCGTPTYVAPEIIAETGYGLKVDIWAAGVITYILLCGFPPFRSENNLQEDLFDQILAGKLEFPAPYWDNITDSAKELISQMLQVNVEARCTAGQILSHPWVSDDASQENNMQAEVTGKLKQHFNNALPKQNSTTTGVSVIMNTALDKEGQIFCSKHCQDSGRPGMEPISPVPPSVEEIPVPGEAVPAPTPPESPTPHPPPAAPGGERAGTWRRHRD
How it was run: as §1

EphB2(h) = target: T2, EphB2(h) (Homo sapiens, UniProt P29323)
T2 sequence (P29323 19-1055): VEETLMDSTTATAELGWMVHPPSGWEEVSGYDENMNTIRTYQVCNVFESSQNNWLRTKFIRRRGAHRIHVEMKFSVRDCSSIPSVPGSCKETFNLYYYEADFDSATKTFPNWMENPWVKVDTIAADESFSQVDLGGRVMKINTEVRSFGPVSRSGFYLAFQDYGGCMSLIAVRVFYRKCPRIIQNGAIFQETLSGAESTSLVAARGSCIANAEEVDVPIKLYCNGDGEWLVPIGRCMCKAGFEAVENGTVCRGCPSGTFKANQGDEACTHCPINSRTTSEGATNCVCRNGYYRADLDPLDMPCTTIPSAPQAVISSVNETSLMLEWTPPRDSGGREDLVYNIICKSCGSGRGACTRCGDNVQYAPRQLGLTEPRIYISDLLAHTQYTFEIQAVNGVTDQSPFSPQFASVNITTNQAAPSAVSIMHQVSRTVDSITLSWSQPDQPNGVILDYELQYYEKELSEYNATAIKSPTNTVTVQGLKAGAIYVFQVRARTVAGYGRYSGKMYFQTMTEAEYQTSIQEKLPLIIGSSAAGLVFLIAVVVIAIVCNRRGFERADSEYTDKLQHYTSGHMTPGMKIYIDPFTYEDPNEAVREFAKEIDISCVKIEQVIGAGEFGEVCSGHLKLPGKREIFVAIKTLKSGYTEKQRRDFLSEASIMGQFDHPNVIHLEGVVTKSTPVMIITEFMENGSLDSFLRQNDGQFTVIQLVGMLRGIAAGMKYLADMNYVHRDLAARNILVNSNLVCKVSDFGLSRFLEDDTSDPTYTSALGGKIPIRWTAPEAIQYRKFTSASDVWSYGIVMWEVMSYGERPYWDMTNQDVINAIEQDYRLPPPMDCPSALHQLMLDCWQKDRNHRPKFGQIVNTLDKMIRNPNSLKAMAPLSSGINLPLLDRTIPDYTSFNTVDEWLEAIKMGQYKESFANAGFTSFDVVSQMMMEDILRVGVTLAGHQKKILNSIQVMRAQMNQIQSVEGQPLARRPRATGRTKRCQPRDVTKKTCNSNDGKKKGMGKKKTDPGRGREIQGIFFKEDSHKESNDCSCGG
How it was run: as §1

Haspin(h) = target: T3, Haspin(h) (Homo sapiens, UniProt Q8TF76)
T3 construct: purchased Millipore
T3 sequence (Q8TF76 1-798): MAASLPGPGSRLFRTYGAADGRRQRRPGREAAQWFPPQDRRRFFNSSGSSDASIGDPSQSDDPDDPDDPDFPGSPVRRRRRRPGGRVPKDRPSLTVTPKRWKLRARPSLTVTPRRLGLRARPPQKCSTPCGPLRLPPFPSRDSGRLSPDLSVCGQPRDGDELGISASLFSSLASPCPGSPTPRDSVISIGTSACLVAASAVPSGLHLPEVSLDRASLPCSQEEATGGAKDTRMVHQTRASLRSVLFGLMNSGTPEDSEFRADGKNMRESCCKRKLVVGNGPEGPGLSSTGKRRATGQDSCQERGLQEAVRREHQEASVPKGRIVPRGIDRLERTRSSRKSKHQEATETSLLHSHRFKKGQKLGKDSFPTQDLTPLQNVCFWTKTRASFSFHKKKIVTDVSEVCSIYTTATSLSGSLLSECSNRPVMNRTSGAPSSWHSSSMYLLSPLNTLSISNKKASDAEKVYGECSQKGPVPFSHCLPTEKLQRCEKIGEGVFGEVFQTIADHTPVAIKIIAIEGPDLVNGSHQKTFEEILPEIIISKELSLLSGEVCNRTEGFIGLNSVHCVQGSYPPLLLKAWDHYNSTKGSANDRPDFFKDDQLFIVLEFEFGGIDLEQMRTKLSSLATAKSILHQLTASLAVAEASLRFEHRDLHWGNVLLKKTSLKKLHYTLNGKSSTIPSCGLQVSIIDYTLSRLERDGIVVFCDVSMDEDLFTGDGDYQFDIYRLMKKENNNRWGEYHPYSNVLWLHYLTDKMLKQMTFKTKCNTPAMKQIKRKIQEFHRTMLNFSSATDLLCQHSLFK
How it was run: as §1

MELK(h) = target: T4, MELK(h) (Homo sapiens, UniProt Q14680)
T4 construct: purchased Millipore
How it was run: as §1

CaMKIδ(h), sequence (Q8IU85 whole entry): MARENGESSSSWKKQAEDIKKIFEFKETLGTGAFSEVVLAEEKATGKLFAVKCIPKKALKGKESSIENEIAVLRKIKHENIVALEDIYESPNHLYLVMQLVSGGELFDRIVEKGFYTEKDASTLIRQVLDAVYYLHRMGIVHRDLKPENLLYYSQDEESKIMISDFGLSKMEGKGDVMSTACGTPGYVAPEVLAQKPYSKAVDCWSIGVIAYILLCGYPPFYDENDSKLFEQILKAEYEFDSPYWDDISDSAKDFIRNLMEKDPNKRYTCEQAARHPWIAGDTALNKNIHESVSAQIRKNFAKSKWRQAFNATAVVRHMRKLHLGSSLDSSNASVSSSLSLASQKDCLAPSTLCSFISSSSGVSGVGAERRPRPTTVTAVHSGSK
T4 sequence (Q14680 whole entry): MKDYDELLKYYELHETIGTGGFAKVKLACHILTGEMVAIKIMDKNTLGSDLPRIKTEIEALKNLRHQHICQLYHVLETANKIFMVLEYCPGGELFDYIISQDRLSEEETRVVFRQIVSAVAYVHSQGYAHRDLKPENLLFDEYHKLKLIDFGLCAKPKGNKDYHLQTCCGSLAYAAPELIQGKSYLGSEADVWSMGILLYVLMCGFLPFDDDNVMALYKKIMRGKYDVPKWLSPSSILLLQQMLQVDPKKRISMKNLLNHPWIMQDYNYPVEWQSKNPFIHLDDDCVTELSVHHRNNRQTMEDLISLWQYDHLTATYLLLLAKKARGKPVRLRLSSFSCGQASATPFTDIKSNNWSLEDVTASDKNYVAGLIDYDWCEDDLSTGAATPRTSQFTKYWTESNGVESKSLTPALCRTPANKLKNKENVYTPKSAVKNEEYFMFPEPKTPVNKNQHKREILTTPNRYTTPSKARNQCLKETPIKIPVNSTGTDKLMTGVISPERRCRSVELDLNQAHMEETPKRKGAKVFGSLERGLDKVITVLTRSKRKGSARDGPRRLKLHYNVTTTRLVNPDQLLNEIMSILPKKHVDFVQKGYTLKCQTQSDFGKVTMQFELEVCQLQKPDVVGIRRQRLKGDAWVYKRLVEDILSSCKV

Sequence | % activity (CaMKIδ(h)) [%] | % activity (DCAMKL2(h)) [%] | % activity (EphB2(h)) [%] | % activity (Haspin(h)) [%] | % activity (MELK(h)) [%]
FAKLAARLYRKALARQLGVAA [MMI-0300] | 10 | 81 | 18 | 48 | 16
HRRIKAWLKKIKALARQLGVAA (Mammal) [MMI-0500] | 0 | 56 | 70 | 25 | 0
KAFAKLAARLYRKALARQLGVAA [MMI-0400] | 17 | 70 | 22 | 36 | 17
YARAAARQARAKALARQLGVAA [MMI-0100] | – | 146 | 68 | 127 | 74
YARAAARQARAKALNRQLGVA (Mammal) [MMI-0200] | 47 | 131 | 128 | 71 | 59
